Where a chain is given by its changes, count along the chain named. Numbers in names are those of the source.
B1: H267G: ADA2 variant SEQ ID NO:37 (protein)
chain: IDETRAHLLLKEKMMRLGGRLVLNTKEELANERLMTLKIAEMKEAMRTLIFPPSMHFFQAKHLIERSQVFNILRMMPKGAALHLHDIGIVTMDWLVRNVTYRPHCHICFTPRGIMQFRFAHPTPRPSEKCSKWILLEDYRKRVQNVTEFDDSLLRNFTLVTQHPEVIYTNQNVVWSKFETIFFTISGLIHYAPVFRDYVFRSMQEFYEDNVLYMEIRARLLPVYELSGEHHDEEWSVKTYQEVAQKFVETHPEFIGIKIIYSDGRSKDVAVIAESIRMAMGLRIKFPTVVAGFDLVGHEDTGHSLHDYKEALMIPAKDGVKLPYFFHAGETDWQGTSIDRNILDALMLNTTRIGHGFALSKHPAVRTYSWKKDIPIEVCPISNQVLKLVSDLRNHPVATLMATGHPMVISSDDPAMFGAKGLSYDFYEVFMGIGGMKADLRTLKQLAMNSIKYSTLLESEKNTFMEIWKKRWDKFIADVATK
modifications: human ADA2 H264G, mature numbering
B2: E182D: ADA2 variant SEQ ID NO:45 (protein)
chain: B1 chain with E179D, G264H
modifications: human ADA2 E179D, mature numbering
B3: E182G: ADA2 variant SEQ ID NO:50 (protein)
chain: B1 chain with E179G, G264H
modifications: human ADA2 E179G, mature numbering
B4: E182V: ADA2 variant SEQ ID NO:49 (protein)
chain: B1 chain with E179V, G264H
modifications: human ADA2 E179V, mature numbering
B5: S265M: ADA2 variant SEQ ID NO:53 (protein)
chain: B1 chain with S262M, G264H
modifications: human ADA2 S262M, mature numbering
B6: R222N: ADA2 variant SEQ ID NO:40 (protein)
chain: B1 chain with R219N, G264H
modifications: human ADA2 R219N, mature numbering
B7: S265V: ADA2 variant SEQ ID NO:52 (protein)
chain: B1 chain with S262V, G264H
modifications: human ADA2 S262V, mature numbering
B8: E182S: ADA2 variant SEQ ID NO:47 (protein)
chain: B1 chain with E179S, G264H
modifications: human ADA2 E179S, mature numbering
B9: R222A: ADA2 variant SEQ ID NO:41 (protein)
chain: B1 chain with R219A, G264H
modifications: human ADA2 R219A, mature numbering
B10: E182T: ADA2 variant SEQ ID NO:48 (protein)
chain: B1 chain with E179T, G264H
modifications: human ADA2 E179T, mature numbering
B11: S265A: ADA2 variant SEQ ID NO:51 (protein)
chain: B1 chain with S262A, G264H
modifications: human ADA2 S262A, mature numbering
B12: R222K: ADA2 variant SEQ ID NO:38 (protein)
chain: B1 chain with R219K, G264H
modifications: human ADA2 R219K, mature numbering
B13: L224G: ADA2 variant SEQ ID NO:44 (protein)
chain: B1 chain with L221G, G264H
modifications: human ADA2 L221G, mature numbering
B14: H267Q: ADA2 variant SEQ ID NO:35 (protein)
chain: B1 chain with G264Q
modifications: human ADA2 H264Q, mature numbering
B15: E182A: ADA2 variant SEQ ID NO:46 (protein)
chain: B1 chain with E179A, G264H
modifications: human ADA2 E179A, mature numbering
B16: L224V: ADA2 variant SEQ ID NO:43 (protein)
chain: B1 chain with L221V, G264H
modifications: human ADA2 L221V, mature numbering
B17: L224A: ADA2 variant SEQ ID NO:42 (protein)
chain: B1 chain with L221A, G264H
modifications: human ADA2 L221A, mature numbering
B18: H267A: ADA2 variant SEQ ID NO:34 (protein)
chain: B1 chain with G264A
modifications: human ADA2 H264A, mature numbering

assay: Adenosine deaminase (ADA) enzymatic activity assay kit; format: biochemical; conditions: purified protein at 5 μg/mL
Protocol: Adenosine deaminase activity was determined using an adenosine deaminase (ADA) assay kit (Genway, San Diego, Calif.; Cat. No. BQ014EALD) with minor modifications. The ADA assay is based on the enzymatic deamination of adenosine to inosine, which is converted to hypoxanthine by purine nucleoside phosphorylase (PNP). Hypoxanthine is then converted to uric acid and hydrogen peroxide by xanthine oxidase (XOD). Hydrogen peroxide is further reacted with N-Ethyl-N-(2-hydroxy-3-sulfopropyl)-3-methylaniline (EHSPT) and 4-aminoantipyrine (4-AA) in the presence of peroxidase (POD) to generate quinone dye, which is monitored in a kinetic manner.
Briefly, 5 μL samples in duplicates (at appropriate dilutions to measure steady-state, non-saturating enzyme activity) were added to 120 μL R1 reagent (provided by the manufacturer; 50 mM Tris HCL, pH 8.0, 2 mM 4-AA, 0.1 U/mL PNP, 0.2 U/mL XOD, 0.6 U/mL peroxidase) in a 96 well plate, according to manufacturer's instructions. The mixtures were incubated at 37° C. for approximately 5 min and 60 μL of R2 reagent (provided by the manufacturer; 50 mM Tris HCl, pH 4.0, 10 mM Adenosine, 2 mM EHSPT) was added to the mixtures. Then, change in absorbance (AA) at 556 nm over time at 37° C. was measured. One unit of ADA is the amount of ADA that generates one μmole of inosine from adenosine per minute at 37° C. Adenosine deaminase activity in mU/mL was calculated using the following formula: 1 mU/mL=(ΔA/min×Tv)/(Sv×ϵ×1) • where Tv=total volume (185 μL), Sv=sample volume (5 μL), ϵ=32.2×10^−3 μM^−1 cm^−1, 1=0.5 cm.
Adenosine deaminase activity of WT rHuADA2 and variants tested above were determined using the adenosine deaminase activity (ADA) assay described in Example 4. Activity was assessed on purified rHuADA2 WT and variants that were diluted to 5 μg/mL, and then serially diluted 2 fold to generate 4 measurements.
Adenosine deaminase activity of PEGylated rHuADA2 and variants was assessed using the method described in Example 4, and compared to the activity of the corresponding non-PEGylated form.
Selected candidate variants described in Table 8 above, containing an amino acid substitution in a residue that play a role in enzymatic activity, were assessed for their adenosine deaminase activity using the method described in Example 4. To perform the experiments, purified WT rHuADA2 and tested variants were prepared at 5 μg/mL concentration to normalize the amount of protein in each experiment.

| Molecule | Adenosine deaminase activity mU/ml [mU/ml] | Adenosine deaminase activity ΔA/min |
| --- | --- | --- |
| B1 | 119.1 | 51.8 ΔA/min |
| B2 | 18.1 | 7.8 ΔA/min |
| B3 | 6.9 | 3 ΔA/min |
| B4 | 8 | 3.5 ΔA/min |
| B5 | 81.6 | 35.5 ΔA/min |
| B6 | 81.5 | 35.4 ΔA/min |
| B7 | 66.1 | 28.8 ΔA/min |
| B8 | 9.5 | 4.1 ΔA/min |
| B9 | 31.2 | 13.6 ΔA/min |
| B10 | 6.2 | 2.7 ΔA/min |
| B11 | 47.1 | 20.5 ΔA/min |
| B12 | 118.5 | 51.5 ΔA/min |
| B13 | 88.2 | 38.3 ΔA/min |
| B14 | 89.3 | 38.8 ΔA/min |
| B15 | 8.6 | 3.7 ΔA/min |
| B16 | 96.1 | 41.8 ΔA/min |
| B17 | 100.1 | 43.5 ΔA/min |
| B18 | 70.9 | 30.8 ΔA/min |

same assay, conditions: purified protein at 5 μg/mL; compared to WT-ADA2

| % of WT activity [%] | Molecule |
| --- | --- |
| 153 | B1 |
| 23 | B2 |
| 9 | B3 |
| 10 | B4 |
| 105 | B5 |
| 104 | B6 |
| 85 | B7 |
| 12 | B8 |
| 40 | B9 |
| 8 | B10 |
| 60 | B11 |
| 152 | B12 |
| 113 | B13 |
| 114 | B14 |
| 11 | B15 |
| 123 | B16 |
| 128 | B17 |
| 91 | B18 |
